Source: the DeepSol protein solubility set

Test: soluble on expression in E. coli; label from the status in PepcDB or PDB records

Row | Sequence | soluble on expression in E. coli
1 | MRMENQKDLQENYLKVLERVELGSRVSGTVVNIMKDYVLVDIGYKSEGFIKIEEFENVPQVGDRLEAIVVRIGGELGLILSVEKLNSLNFQDKVYEYIQNKKIIKGKVLVELPNGYKIQINENVSGFMPFYLSSKSKDEKLKRGSVVEFYILEASEADGLRLILDRRTLEKERDLAKRIELVSSYNEEDVVDGVVERITEYGAIVKIKNFVTGILHKRNIAFNQVENVEDFVRVGDKLKLKIIKINPQTGKMELSLKALKANPWDSVDVKYKIDSIVKGKVVKILPFGAVIELDSELSGFLHISNFSWIRVVKSPQELIKLGQIVEVKILEIDKENQKISLGIKQINENPWERLTEKYPIGRVVQGVVTNITKTGAFVNIEEGIDAYVSKFDISWLEEIDPEEYFKIGDLVNGKVLEVDKRKRNVRLGIKQLEESPWEDFSKSYKKGDTIEVEIVEKKSKGFQVRVYNKIMGFISKIQLGDTKESSLETFEKLNVGDKLKVVITSIDSKDKSVLLSYREYENQRSREEISSYLFKGNDEESYKPFENLLKRDELEHHHHHH | soluble
2 | MSLDEIVGIGFKRADAIARNMGVHPHSKYRIHSGIKYMLNTFQGEGHTYAPGVKLIQRAEELLRVEEGQVEGAIQELALNQEIQLERIDDEIIVYSMPYYYAESNVCKKLISLAQVELDPIEMDIDEELQKIEQAEEMTLAKQQKEAIKEAIENGISVITGGPGTGKTTTINSLIKVFEKLELKMLLAAPTGRASKRMTEATGKESKTIHRLLELGFGDDREGMLFQRNEDNPLDCHVIIIDEVSMVDIILMNSLMKSIARGTRVVLVGDVDQLPSVGAGNVLRDIIDSKVVKTIRLTEIFRQAQESMIVVNAHRINQGLYPQLNEKQKDFYFMKRNAKEDVLATVVELVRDRLPKHYQFDALRDIQVLTPMKKGETGTLNLNKELQAALNPPNVSKAEKDLKEKIFREGDKVMQIKNNYTLKWRCLDPMAEEQKGEGVFNGDIGYVQSIDTEAEELVILFDDQKQVNYSFTQLDELELAYSVTIHKSQGSEFPVVVIPITWGPPMLLTRNLLYTAVTRARSLVVLVGVESYLKKMVDNNKIIERYSGLGRRLGKYFEEGHHHHHH | not soluble
3 | MSLSQASSTDTPFVIAGRTYGSRLLVGTGKYKDLDETRRAIEASGAEIVTVAVRRTNIGQNPDEPNLLDVIPPDRYTILPNTAGCYDAVEAVRTCRLARELLDGHNLVKLEVLADQKTLFPNVVETLKAAEQLVKDGFDVMVYTSDDPIIARQLAEIGCIAVMPLAGLIGSGLGICNPYNLRIILEEAKVPVLVDAGVGTASDAAIAMELGCEAVLMNTAIAHAKDPVMMAEAMKHAIVAGRLAYLAGRMPRKLYASASSPLDGLIDEGGSHHHHHH | soluble
4 | MNHDIDIKKVRLNCFRQSKVPGEFMLQMRIPGGIVDAKYLSQIQEIAETWGNGTFHMGMRQTFNIPGIKYENIQAVNKFIENYLQEVEVDRCNCDMKVDENGYPTIGARNVMACIGNSHCIKANVDTKDMANKIEKLVFPSHYHIKVSVAGCPNDCAKGHFQDFGVIGQARMEYHEERCIGCGACVRACEHHATRVLSLNDKGLVDKDPCCCVGCGECVLACPASAWTRKPEKFYRIVIGGRTGKQTPRMGKTFINFATEEVVLGIFANWQKFSAWALDYKPEYLHGGHLIDRAGYHKFKEIILDGVELNPEALVADNIFWAETEYRSNFNVKPIKMHKTIESNRPLRLEHHHHHH | not soluble
5 | MTKKVAIILANEFEDIEYSSPKEALENAGFNTVVIGDTANSEVVGKHGEKVTVDVGIAEAKPEDYDALLIPGGFSPDHLRGDTEGRYGTFAKYFTKNDVPTFAICHGPQILIDTDDLKGRTLTAVLNVRKDLSNAGAHVVDESVVVDNNIVTSRVPDDLDDFNREIVKQLQ | not soluble
6 | MGSDKIHHHHHHMIDVAIIGGGHNGLVTAAYLAKAGLKVAVFERREIVGGASVTEELWPSIKVSTGAYVLSLLRPKIIEELKLREFGLKVYLKDPGLFLPFENGKKLYIWSSLEKTKKEIEKFSKNDAKNYKKWVKFWDLFAEMADFFMLNPPPHIDEASNLINIFRGNVNEELALSFLRTFMQDAKSLLDEYFETDEVKSALAEDSVVGTFASPSTPGTAYVLAHHVIGEVNGVKGAWGYVEGGMGEVTQALKRSAEHLGVEIYTNAEVDEVLVKNGRVEGIKLKNGKTINAKIIVSNADPKTTFFKLLRNAELEEDFLRRVRALKNVGVSFKIVGYLEELPDFGNGKSLSPEHIASELIMPNMEYIEKAYDDARALGYSREPWLSINIQSSVDPTVAPPGKFSFSIFGQYLVYDSKRNDEMKEKIAEITFEKIKEFAPNFKPIKYEVLTPLDIERRFGINGGNIFHLDMTPDQLYFFRPLIGYSDYTTPIRGLYLCGSGTHPGGGVTGAPGYNAHVKILEDLRKGIYK | not soluble
7 | MYQVIKMYGDWEPWWFIDGWQDDIIDEQQFSDWQEALDYFNQEWQRMKAIFPSYHSQKNLLATFWEKEDKRWCEDCDEDLQQFHSLLLLKNKDIVPSNNYIPEFEQRNDSPQVAYLCKLNL | not soluble
8 | MDTNWLYVLLQKSTADPLERLKLGNVILNEVSQRKVSPHPKLVNDFLDVMSGWLTGSNFKVSTIGLEILDAALRTSPDVLASYYFDRCSVLIERMGDAKVQVREMAINLCLQLAYLENSSPVMLLDRLCVPGTGFQHKQWLVKVGSLNILREFLSSSFALVIQQAITLIPQLCRLTNDPNSEVRDVSTQCLIDLMVYGGKPIVAKIAATRLINEQKMATLLQRYQTTVATRGDLPPKHTITMETTPAQPSRNSLLRRSLRSPAKIIHPSASTTSFTSSARLSTPPRPTTTAAQSLSLAPQTPSPLSLPSPSGGQMSRSRDLTRSSLRAPAGISISRYRSSSCAPAAQCAITLDDFKKSFTAVPKTTIYSNHDIREKLELANLVLRNANEDWSKRANQLKLIRSIIINCDENIDRSLLISIINELADALEFSIRDLRSQIVREAAVTCSFLFETFGMEVKNVAECVLPAALAQVAVSTKVIASSAATLTVFIVQKIQTRQIFTTLSELSSSKAKEQRRQLAVVLETLIASWDLKSKQPILKQIAQLVQNAICDADGETRVAGRKAFAKLEQLHGTTADLIFRELDPAKQKMLRDGVSSSSSSLNSDRDNNNQKQQPNQQNISQKFLSQRSASAVDKSIQLSVKPQTTAIPSRPTAMPMNNRLPKSSTSTSFSAVRSSGYGQNQSTTPNRAKTPSDGFAGSSPHYTNGNNNNKSSSSSPSTSTHQTPIQRVASNLGSSSFVASLTQEQANCLQNAMNTAKDEMSKNNEDDEFLLDEIRKTPPKEVPRSYNNSPFKPSNLDSSVHRSYNNNSPFRPSSGSVGSGSNGSVQSIEHILKACTSSSLNEKRDAIVNLNQVITDPNLCQLECKNIGDTLSRLLAEGNNTLIISILDTISIFIKFQYKKLDNWLKLALGKLFAKMGADALPNVKSALSSTQKMFLTTFDPTFQLKAVCDFMCDPVHLLSPKSRLALLEYICLLFEEIWPEDPRCLERQTHLDTPYTRAAIRKMFAWMFDPRIGAILMPACERLVCALFALNAADFTMIFGELPSECRDWAYRILQLNGQQNNQKPIEKEKERFISNNNYKPCPLDNEEIEKPIMKTTYSTYESTRKEYSQTERIATENQYSTPPPPDYRTSTAHLAKNHVDQAAYIRNQLDAIRDFEKADKLNEAMANLHGMMCEGSFTLWNQFFDELLDSIYQILSTFSQSIRKKLALRILQKMCTAQATKLFDSTEIAISKVLQCACTSDDNTMGVAAEDCLRILASHLPLTRVVLISRRILSQDDDDQRGVLILKMLTRMFQDIDIEELHLIVNDVAPCFVTAYESMSSTVRKCAVFGLVALVQRVGMQRMEPHLRTLNASKLNLIDLYVGRAKSSESGASSN | not soluble
9 | MNPEVTVLMSVYNDKNYLSESIESILNQTFENFEFLIINDASTDGSGELLEEYSKKDKRIRLIHNKNNRGLSYSLAEGVSLAKAPWIARMDADDVSFKDRLAVQMDHVKAHSELDILGSYVIDIDDKGNELEIRKVPTTHKEIANLIWTCPFIHPTVLFKKDSIIKAGSYDRNLRRRQDYDLWFRCLEAKLKFENIDKPLLYYRSTDDYYKKNNFKVQVQQAKMGFAGARRVKAKPIAYIGITVAFIKGILPYHIRKPLSQLLKKVDPRRALEHHHHHH | soluble
10 | MENIFLKRLEFKAFEEDSVFSKIEGLNKFNSLNFKKPITFFSGENGTGKSTLLEAIAVNWGFNPEGGSINFNFSTKDTHLDLHNYLTVGKSVKRATDGFFLRAESFYNVATYAENIDLDFSEYGDKSLHHQSHGESFLNLVNHRFRGNGLYLLDEPEAALSPQRQLALMISIKKLIDEGSQFIIVSHSPILLAMPDSQIISFDKDSPLEITYEESMPYEITSLFLNNKNRILSHLFAE | not soluble
11 | MGRKWANIVAKKTAKDGATSKIYAKFGVEIYAAAKQGEPDPELNTSLKFVIERAKQAQVPKHVIDKAIDKAKGGGDETFVQGRYEGFGPNGSMIIAETLTSNVNRTIANVRTIFNKKGGNIGAAGSVSYMFDNTGVIVFKGTDPDHIFEILLEAEVDVRDVTEEEGNIVIYTEPTDLHKGIAALKAAGITEFSTTELEMIAQSEVELSPEDLEIFEGLVDALEDDDDVQKVYHNVANL | soluble
12 | SQQALRILEVRSAYCKNDFEWDNMKRLAFKNVDDSNTRLMREYVLETSHVETDSDK | soluble
13 | MKTYDVVVVGAGMLGIAHAWAAARRGLSVAVVERSQRAHGATIRNFGQVLVTGQAPGVMARHARQSRELWLELAAGAGFHVRANGSLVLARSALEQDVLEEFAAARLQAEGYRAELLSGRELARLFDGRLGHHCAALRGHDDLQIYSREALPAITAYLADRFGVEFLTATLASAVREGVVQTSAGALRGRHAFVCPGHDYLTLAPELFAPLGLQVSCLQMLRVAFETRPFALDRPLLTGLSCVYYGAFSDLPTARTLRESLQRHEPDLLDNGIHLLVSPTPHGELIIGDSHRYGVDALPFNDEQVDCAMLDLAQQALGCRLRVIERWQGVYGAHGPAPFSVLPVDDQTTVAVMHSGVGMTVGLAVGENTVQARLGLEHHHHHH | not soluble
14 | MKFKLFLGSSFFGVATLLIACGTGRFDQIDDGKIKLAVVTSPSAASSLQTLLDQYNNTKAPADYPVEVVSLDSTGSYTKGKFDTQKRLAAKDKNNFYN | not soluble
15 | MQTLKSDIRNRILSAAKEQFMQRGYLKTSMREIADAVDVGVGNLYNYFENKDELFCVILRPVSDALERMLQEHHGAKGADIMLICSEEYLKSAVDEYISLINKHGELMKILLFHSQGSSLETFREDYTNRSTEIVKTWFAEMKEKHPEINVVVSDFMIHLQAVWMFTLFEEMLKHAIDSKEMEYIVHEYILFEIQGWRALLRV | not soluble
16 | MGSDKIHHHHHHMKILLHMCCGPCAAYPVEQLRGQGAAVTGYWFNHNIHPYQEYMRRRDTVRAYAEKVRLDVIWRDEYRLEEFLAAVAQNPDDRCFYCYFSRLDAVAAAAAAGGFDAFSSTLLYSRYQKHDAIRDCAERAAERHGVAFHYDDYRRGWQEGIRLSKELGLYRHQYCGCIYSEKERYHPREGAK | not soluble
17 | MGSDKIHHHHHHMPRLLLVTNDFPPTVGGIQSYLRDFVALLPPEDVVVFASTQDPVAAREFDKSVPYKVVRYSSKLMLPTPQVKKLMVDLIKSEGVSTVWFGAAAPLAVMAPAARAAGAIQIISTTHGHEVGWSMVPGARSVLRFIGQHSDVVTYISDYTLRRFRRAFGEHPKFVHLPSGVDVERFYPVDEKQKFELRDQLGWAEKDKVIVCTSRLVPRKGQDTLIKAFPEIVQRCSEARLVIVGEGRIEGKLRRLAARDQKASSRISFEGRVSEEKMGMMLRGADVFAMPCRTRGGGLDVEGLGIVFLEAQACGVPVIAGDSGGAPETVTPASGVVVNGRDSSSVAHVIVDLVQQPAALMSMGHAGRQHVVDHWTWEIMGARLKSLIL | not soluble
